This assay addresses Cer-PLN-AFA and YFP-PLN-AFA: canine phospholamban AFA mutant fused at its N-terminus with mCerulean or enhanced YFP (canine) (UniProt P61012). In words: FRET or BRET; in-cell binding assay, acceptor sensitization FRET in living AAV-293 cells co-transfected with Cer-PLN-AFA and YFP-PLN-AFA (1:5); FRET against relative protein concentration cell by cell, hyperbolic fit; apparent KD1 of the PLN-PLN oligomer; with or without 1 uM 50-mer ssDNA. (In BRET a luciferase serves as donor, and the signal depends on an acceptor being close.)

Cer-PLN-AFA and YFP-PLN-AFA: canine phospholamban AFA mutant fused at its N-terminus with mCerulean or enhanced YFP, sequence (P61012 whole entry, change not shown, the tested form may be a part): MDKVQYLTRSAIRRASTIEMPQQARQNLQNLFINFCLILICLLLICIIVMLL

With “Cer-PLN-AFA and YFP-PLN-AFA: canine phospholamban AFA mutant fused at its N-terminus with mCerulean or enhanced YFP (from UniProt P61012 1-52) (natural protein)”, the increase in PLN oligomerization with 50-mer ssDNA against no ssDNA was 20%.

The values above are taken from PMC4543939.
